Data reported in paper PMC4275181.

Key:
Assay in all cases: filter binding
[1] = system: Sc mtTyrRS (Saccharomyces cerevisiae); conditions: 100 mM KCl, 5 mM MgCl2, 20 mM Tris-HCl pH 7.5, 5 mM DTT, 0.1 mg/ml BSA, 10% glycerol, 5 pM RNA, 30 min, 25C or 37C; nitrocellulose/nylon filter
[2] = biological target: T1, CYT-18 NTDs (Neurospora crassa) (UniProt P12063); conditions: 100 mM KCl, 5 mM MgCl2, 20 mM Tris-HCl pH 7.5, 5 mM DTT, 0.1 mg/ml BSA, 10% glycerol, 5 pM RNA, 30 min, 25C or 37C, nitrocellulose/nylon filter
T1 sequence: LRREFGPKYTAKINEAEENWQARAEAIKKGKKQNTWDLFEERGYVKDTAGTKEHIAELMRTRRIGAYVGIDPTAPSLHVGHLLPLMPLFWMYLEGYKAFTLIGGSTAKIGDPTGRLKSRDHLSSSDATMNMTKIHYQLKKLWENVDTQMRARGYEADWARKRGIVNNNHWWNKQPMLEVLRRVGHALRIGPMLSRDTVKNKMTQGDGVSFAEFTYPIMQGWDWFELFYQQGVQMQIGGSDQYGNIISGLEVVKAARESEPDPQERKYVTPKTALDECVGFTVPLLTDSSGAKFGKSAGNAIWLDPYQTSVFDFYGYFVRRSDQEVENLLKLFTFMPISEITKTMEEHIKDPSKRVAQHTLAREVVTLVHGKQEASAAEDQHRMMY

[3] = biological target: T2, Sc CTD (Saccharomyces cerevisiae) (UniProt P48527); conditions: 25C; n=1.8; 100 mM KCl, 5 mM MgCl2, 20 mM Tris-HCl pH 7.5, 5 mM DTT, 0.1 mg/ml BSA, 10% glycerol, 5 pM RNA, 30 min, 25C or 37C; nitrocellulose/nylon filter
T2 sequence: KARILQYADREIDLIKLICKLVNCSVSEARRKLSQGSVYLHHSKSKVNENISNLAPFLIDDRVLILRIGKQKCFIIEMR

Row | Substance | Kd [1] | Kd ([2]; 25C, high end of stated range, weakest group I intron) | Kd ([2]; 37C, high end of stated range, weakest group I intron) | Kd ([2]; 25C, low end of stated range, strongest group I intron) | Kd ([2]; 37C, low end of stated range, strongest group I intron) | K half [3] | Kd [2] | K half ([2]; 25C, n=1.6)
1 | Nc mt LSU group I intron RNA | 430 nM | 590 nM | 740 nM |  |  |  |  | 
2 | Nc ND1m group I intron RNA |  |  |  | 200 nM | 440 nM |  |  | 
3 | Ll.LtrB group II intron RNA (dORF, branch-point nucleotide deleted) | 440 nM |  |  |  |  | 110 nM | 440 nM | 240 nM
